Measured values published in the supplement of paper PMC7125110.
± gives the standard error. Variants at the floor of the assay were thinned out.

B1: glmS ribozyme (parent)
chain: AUAAAAGCGCCAGAACUACAGAAAUGUAGUUGACGAGGAGGAGGUUUAUCGAAUUUUCGGCGGAUGCCUCCAAA

How the values were obtained:
Settings in all cases: with glucosamine-6-phosphate
glucosamine-6-phosphate [1] = variants of: B1; assay: self-cleavage kobs at 40 uM GlcN6P; higher = faster cleavage; RNA array
How it was run: (§1)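 In situ transcription by E. coli RNA polymerase produced barcoded ribozyme variants on sequenced MiSeq chips, and a hybridised Cy3 probe tracked them at 37 °C. Glucosamine-6-phosphate was flowed in at 40 μM to 10 mM in HEPES/KCl/Mg(OAc)2 buffer. kcat and KM were taken from weighted Michaelis–Menten fits of kobs values from exponential decay fits.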

glucosamine-6-phosphate [2] = variants of: B1; assay: self-cleavage kobs at 160 uM GlcN6P; higher = faster cleavage; RNA array
How it was run: as §1

glucosamine-6-phosphate [3] = variants of: B1; assay: self-cleavage kobs at 640 uM GlcN6P; higher = faster cleavage; RNA array
How it was run: as §1

glucosamine-6-phosphate [4] = variants of: B1; assay: self-cleavage kobs at 2500 uM GlcN6P; higher = faster cleavage; RNA array
How it was run: as §1

glucosamine-6-phosphate [5] = variants of: B1; assay: self-cleavage kobs at 10000 uM GlcN6P; higher = faster cleavage; RNA array
How it was run: as §1

| Variant | self-cleavage kobs at 40 uM GlcN6P (glucosamine-6-phosphate [1]) [s⁻¹] | self-cleavage kobs at 160 uM GlcN6P (glucosamine-6-phosphate [2]) [s⁻¹] | self-cleavage kobs at 640 uM GlcN6P (glucosamine-6-phosphate [3]) [s⁻¹] | self-cleavage kobs at 2500 uM GlcN6P (glucosamine-6-phosphate [4]) [s⁻¹] | self-cleavage kobs at 10000 uM GlcN6P (glucosamine-6-phosphate [5]) [s⁻¹] |
| --- | --- | --- | --- | --- | --- |
| G60U C68G | < 1e-05 | < 1e-05 | < 1e-05 | < 1e-05 | < 1e-05 |
| C11A A14G G29A G35A A53G | < 1e-05 | – | – | – | – |
| A48C G51U | < 1e-05 | – | < 1e-05 | – | < 1e-05 |
| A36C U45G U65C | < 1e-05 | – | – | < 1e-05 | – |
| G29U U46G C50U G60U G66U | < 1e-05 | – | – | – | – |
| A6G A36U C50U | < 1e-05 | – | < 1e-05 | – | < 1e-05 |
| G7C G40C | < 1e-05 | – | – | < 1e-05 | < 1e-05 |
| A33U A36C C58G U69C | 4.07e-05 ± 2e-05 | 7.32e-05 ± 1.9e-05 | – | – | – |
| G9U A36G A42U G44U | < 1e-05 | – | < 1e-05 | < 1e-05 | – |
| C11U G13A A14C A52C G66A | < 1e-05 | – | – | – | < 1e-05 |
| A6U C50G | 4.82e-05 ± 1.8e-05 | 6.77e-05 ± 2.7e-05 | – | 0.000434 ± 0.00021 | 2.57e-05 ± 1.3e-05 |
| A14G A15U C67G | 5.43e-05 ± 1.3e-05 | – | – | – | 0.0027 ± 0.00046 |
| C11G A36C G37U G38U U49A G63C U65A | < 1e-05 | – | – | – | < 1e-05 |
| A14C A53C G62C C68G | < 1e-05 | – | – | – | < 1e-05 |
| C11U G44C G60U | < 1e-05 | – | – | – | < 1e-05 |
| U30A G35A | < 1e-05 | < 1e-05 | < 1e-05 | < 1e-05 | < 1e-05 |
| C58G A64C | < 1e-05 | < 1e-05 | – | – | – |
| G7A A48U U56G | < 1e-05 | < 1e-05 | < 1e-05 | – | < 1e-05 |
| C10A A14U C70A | 5.36e-05 ± 2.5e-05 | – | – | – | 3.49e-05 ± 1.4e-05 |
| G29C U31A U46A A53C C71U | < 1e-05 | – | – | – | – |
| C8A G41U | < 1e-05 | < 1e-05 | < 1e-05 | < 1e-05 | < 1e-05 |
| A64G U65G C71A | 5.45e-05 ± 2.2e-05 | – | – | – | 0.00131 ± 0.00024 |

| Variant | self-cleavage kobs at 40 uM GlcN6P (glucosamine-6-phosphate [1]) [s⁻¹] | self-cleavage kobs at 160 uM GlcN6P (glucosamine-6-phosphate [2]) [s⁻¹] | self-cleavage kobs at 640 uM GlcN6P (glucosamine-6-phosphate [3]) [s⁻¹] | self-cleavage kobs at 2500 uM GlcN6P (glucosamine-6-phosphate [4]) [s⁻¹] | self-cleavage kobs at 10000 uM GlcN6P (glucosamine-6-phosphate [5]) [s⁻¹] |
| --- | --- | --- | --- | --- | --- |
| A36C U49A G62C C70U | < 1e-05 | – | – | – | < 1e-05 |
| G32U A36U U46G A48U U56C G60U C61U | < 1e-05 | – | < 1e-05 | – | < 1e-05 |
| A12C A42G C70A | < 1e-05 | – | – | – | 2.91e-05 ± 1.2e-05 |
| G41C U45G | < 1e-05 | – | – | – | 9.46e-05 ± 1.7e-05 |
| C11G A36G | < 1e-05 | < 1e-05 | < 1e-05 | < 1e-05 | < 1e-05 |
| C8G U45C | < 1e-05 | < 1e-05 | < 1e-05 | < 1e-05 | < 1e-05 |
| C16A G43C | < 1e-05 | – | < 1e-05 | – | < 1e-05 |
| A33G C34U C68U | < 1e-05 | – | – | – | – |
| G43A G51A | < 1e-05 | < 1e-05 | – | < 1e-05 | < 1e-05 |
| G29U A36C G38A G40A | < 1e-05 | – | – | < 1e-05 | < 1e-05 |
| A39U G40U C70U | 9.82e-05 ± 1.8e-05 | 0.000392 ± 6.8e-05 | 0.000466 ± 7.4e-05 | 0.00127 ± 0.0003 | 0.00219 ± 0.00054 |
| G13A G32C G43U A48G U69A | < 1e-05 | – | – | – | – |
| A36G G63U | < 1e-05 | < 1e-05 | < 1e-05 | < 1e-05 | < 1e-05 |
| A6G G40C | < 1e-05 | – | < 1e-05 | – | – |
| A15C C50G A53G G62A C70G | 0.000105 ± 3e-05 | – | 8.17e-05 ± 2.4e-05 | 0.000125 ± 4.1e-05 | 8.78e-05 ± 1.9e-05 |
| C10U G41A | < 1e-05 | < 1e-05 | < 1e-05 | < 1e-05 | < 1e-05 |
| G44C C68G | < 1e-05 | < 1e-05 | < 1e-05 | < 1e-05 | < 1e-05 |
| C16U G40A G62A U69A | < 1e-05 | – | – | – | – |
| A15U U31A G32A A36U U57A C58G C71U | 5.17e-05 ± 2.1e-05 | – | – | – | 0.000109 ± 2.6e-05 |
| A14G U69A | 0.000118 ± 2.8e-05 | 0.000124 ± 2.5e-05 | 0.000315 ± 9.3e-05 | 0.000142 ± 2.2e-05 | 0.000397 ± 9.9e-05 |
| G29U C50G G60U C67A | 9.35e-05 ± 1.9e-05 | – | – | – | 0.000133 ± 3e-05 |
| G29A U54C | 0.000148 ± 3.6e-05 | 0.000257 ± 7e-05 | 0.000813 ± 0.00033 | 0.00138 ± 0.00056 | – |
